# Laboratory results published in US20200010571A1 (Janssen / Centocor, published 2020).
# Substitutions are numbered along the chain they refer to. Values joined by “and” are separate entries in the source; they are usually repeats but may differ in a detail not shown here. Equal entries are not always repeated.
# T1: cynomolgus IL-17A (cynomolgus, UniProt Q16552 24-155 (human entry), limits assumed)
# T1 construct: also called Cyno IL-17A
# T1 chain: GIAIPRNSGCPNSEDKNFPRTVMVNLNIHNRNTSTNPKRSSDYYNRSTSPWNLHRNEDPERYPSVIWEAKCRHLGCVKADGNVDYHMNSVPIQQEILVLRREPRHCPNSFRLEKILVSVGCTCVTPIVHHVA
# T2: rat IL-17A (rat, UniProt Q61453 18-150)
# T2 chain: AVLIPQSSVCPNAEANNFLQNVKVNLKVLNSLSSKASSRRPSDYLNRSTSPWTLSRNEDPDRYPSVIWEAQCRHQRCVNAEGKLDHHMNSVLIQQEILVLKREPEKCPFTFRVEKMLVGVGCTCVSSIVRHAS
# T3: mouse IL-17A (mouse, UniProt Q62386 26-158)
# T3 sequence: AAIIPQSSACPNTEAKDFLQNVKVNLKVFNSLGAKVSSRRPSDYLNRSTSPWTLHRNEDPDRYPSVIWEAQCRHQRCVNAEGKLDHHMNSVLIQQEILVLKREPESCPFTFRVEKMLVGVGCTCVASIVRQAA
# T4: rat TNF-α (rat, UniProt P16599 80-235)
# T4 sequence: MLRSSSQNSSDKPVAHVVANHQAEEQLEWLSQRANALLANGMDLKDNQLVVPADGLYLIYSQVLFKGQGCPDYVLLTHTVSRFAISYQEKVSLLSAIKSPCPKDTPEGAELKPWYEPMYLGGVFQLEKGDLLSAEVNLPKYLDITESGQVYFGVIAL
# T5: mouse TNF-α (mouse, UniProt P06804 80-235)
# T5 sequence: T4 sequence with A23V, I59V, S92N, I97V, M118I, L131Q, I144F, T145A
# T6: recombinant human IL-17F (human, UniProt Q96PD4 31-163)
# T6 sequence: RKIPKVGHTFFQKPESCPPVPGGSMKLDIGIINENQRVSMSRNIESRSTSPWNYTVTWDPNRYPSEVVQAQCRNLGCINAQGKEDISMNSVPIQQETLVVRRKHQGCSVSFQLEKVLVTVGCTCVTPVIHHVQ
# B1: mAb 6785 (original parental anti-IL-17A mAb) (antibody, V domains shown)
# VH: QVQLLESGGGLVQPGGSLRLSCAASGFTFSSYAMSWVRQAPGKGLEWVSTISLTSGFTYYADSVKGRFTISRDNSKNTLYLQMNSLRAEDTAVYYCARQLTLDVWGQGTLVTVSS
# VL: QSVLTQPPSVSVAPGQTARISCSGDNLGDKYANWYQQKPGQAPVLVIYDDIDRPSGIPERFSGSNSGNTATLTISGTQAEDEADYYCGSYDFFLGMIVFGGGTKLTVL
# B2: mAb 9762 (bispecific anti-TNF-α/IL-17A antibody, IgG1) (bispecific antibody)
# heavy 1: not shown
# light 1: not shown
# heavy 2: not shown
# light 2: QSVLTQPPSVSVAPGQTARISCSGDNLGDKYANWYQQKPGQAPVLVIYDDIDRPSGIPERFSGSNSGNTATLTISGTQAEDEADYYCGSYDFFLGMIVFGGGTKLTVLGQPKAAPSVTLFPPSSEELQANKATLVCLISDFYPGAVTVAWKADSSPVKAGVETTTPSKQSNNKYAASSYLSLTPEQWKSHRSYSCQVTHEGSTVEKTVAPTECS
# Tests used:
# cynomolgus IL-17A [1] = molecular target: T1, cynomolgus IL-17A; assay: SPR (Biacore 3000), mAb captured by anti-IgG Fc, antigen in solution, 1:1 Langmuir;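 also: run in PBS containing BSA and P20 at 25 °C, antigen injected at four dilutions, 3 min association, dissociation followed 20 min to 2 h, two independent experiments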
# rat IL-17A [2] = molecular target: T2, rat IL-17A; assay: SPR (Biacore 3000)
# mouse IL-17A [3] = molecular target: T3, mouse IL-17A; assay: SPR (Biacore 3000)
# [4] = molecular target: T7, human IL-17A (recombinant) (human, UniProt Q16552 24-155); assay: SPR (Biacore 3000), mAb captured by anti-IgG Fc, antigen in solution, 25 C, 1:1 Langmuir
# T7 construct: Biotinylated in the IL-17RA ELISA; also called rhIL-17A
# rat TNF-α = molecular target: T4, rat TNF-α; assay: SPR (Biacore 3000), mAb captured by anti-IgG Fc, antigen in solution
# mouse TNF-α = molecular target: T5, mouse TNF-α; assay: as above
# [5] = molecular target: T8, rhTNF-α (recombinant human, soluble) (human, UniProt P01375 77-233); assay: SPR (Biacore 3000), mAb captured by anti-IgG Fc, antigen in solution, 25 C, 1:1 Langmuir
# T8 construct: also called human TNF-α; soluble rhTNF-α
# cynomolgus TNF-α [6] = molecular target: T9, cynomolgus TNF-α (cynomolgus, UniProt P79337 77-233); assay: cell-based or functional assay
# [7] = molecular target: T8, rhTNF-α (recombinant human, soluble); assay: cell-based or functional assay
# [8] = molecular target: T7, human IL-17A (recombinant); assay: competition ELISA: biotinylated rhIL-17A binding to plate-coated rhIL-17RA-Fc; Experiment 2; 95% CI 0.1474-0.1920
# rat IL-17A [9] = molecular target: T2, rat IL-17A; assay: SPR (Biacore 3000), mAb captured by anti-IgG Fc, antigen in solution, 1:1 Langmuir;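 also: run in PBS containing BSA and P20 at 25 °C, antigen injected at four dilutions, 3 min association, dissociation followed 20 min to 2 h, two independent experiments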
# mouse IL-17A [10] = molecular target: T3, mouse IL-17A; assay: as above
# [11] = molecular target: T7, human IL-17A (recombinant); assay: cell-based or functional assay
# [12] = molecular target: T10, recombinant human IL-17A/F heterodimer (human, UniProt Q16552 24-155; Q96PD4 31-163); assay: cell-based or functional assay
# [13] = molecular target: T7, human IL-17A (recombinant); assay: competition ELISA: biotinylated rhIL-17A binding to plate-coated rhIL-17RA-Fc; Experiment 1; 95% CI 0.09343-0.1160
# [14] = molecular target: T8, rhTNF-α (recombinant human, soluble); assay: cell-based or functional assay; remark: listed apart in the source
# [15] = molecular target: T7, human IL-17A (recombinant); assay: competition ELISA: biotinylated rhIL-17A binding to plate-coated rhIL-17RA-Fc; Experiment 3; 95% CI 0.2433-0.2757
# cynomolgus IL-17A [16] = molecular target: T1, cynomolgus IL-17A; assay: cell-based or functional assay
# recombinant human IL-17F = molecular target: T6, recombinant human IL-17F; assay: binding to rhIL-17A in the absence or presence of IL-17F
# [17] = molecular target: T10, recombinant human IL-17A/F heterodimer; assay: cell-based or functional assay; remark: listed apart in the source
# [18] = molecular target: T7, human IL-17A (recombinant); assay: competition ELISA: biotinylated rhIL-17A binding to plate-coated rhIL-17RA-Fc
# [19] = molecular target: T8, rhTNF-α (recombinant human, soluble); assay: cell-based or functional assay; remark: listed apart in the source
# [20] = molecular target: protease-resistant form of human transmembrane TNF-α (lacks amino acids Val1 to Pro12) overexpressed by K2 … (human, UniProt P01375 1-233); assay: cell-based or functional assay
# [21] = molecular target: native (endogenous) human TNF-α (human, UniProt P01375 77-233); assay: cell-based or functional assay
# [22] = molecular target: T7, human IL-17A (recombinant); assay: cell-based or functional assay; remark: listed apart in the source
# cynomolgus IL-17A [23] = molecular target: T1, cynomolgus IL-17A; assay: cell-based or functional assay
# cynomolgus TNF-α [24] = molecular target: T9, cynomolgus TNF-α; assay: SPR (Biacore 3000), mAb captured by anti-IgG Fc, antigen in solution, 1:1 Langmuir
binder,measurement,setting,value
B1,Kd,cynomolgus IL-17A [1],0.0286 nM
same,koff,cynomolgus IL-17A [1],3.68e-05 s⁻¹
same,kon,cynomolgus IL-17A [1],1.29e+06 M⁻¹ s⁻¹
same,binding result,rat IL-17A [2],binds
same,binding result,mouse IL-17A [3],binds
same,Kd,[4],0.0309 nM
same,koff,[4],4.79e-05 s⁻¹
same,kon,[4],1.55e+06 M⁻¹ s⁻¹
B2,binding result,rat TNF-α,no binding (tested: up to 100 nM)
same,binding result,mouse TNF-α,no binding (tested: up to 100 nM)
same,Kd,[5],0.0188 nM and 0.0211 nM
same,koff,[5],3.81e-05 s⁻¹ and 3.63e-05 s⁻¹
same,kon,[5],2.02e+06 M⁻¹ s⁻¹ and 1.72e+06 M⁻¹ s⁻¹
same,IC50 (nM); Inhibition of cyno TNF-α mediated cytotoxicity in WEHI-164 cells; Experiment 1,cynomolgus TNF-α [6],4.42 nM
same,IC50 (nM); Inhibition of cyno TNF-α mediated cytotoxicity in WEHI-164 cells; Experiment 2,cynomolgus TNF-α [6],20.6 nM
same,IC50 (nM); Inhibition of cyno TNF-α mediated cytotoxicity in WEHI-164 cells; Experiment 3,cynomolgus TNF-α [6],9.29 nM
same,fold of IC50 against the parental anti-TNF-α antibodies mAb 9809 and mAb 6696; rhTNF-α-induced cytotoxicity in WEHI-164 cells,[7],~3 fold
same,IC50,[8],0.168 µg/mL
same,Kd,rat IL-17A [9],15.4 nM
same,koff,rat IL-17A [9],0.00316 s⁻¹
same,kon,rat IL-17A [9],205000 M⁻¹ s⁻¹
same,Kd,cynomolgus IL-17A [1],0.0236 nM and 0.0318 nM
same,koff,cynomolgus IL-17A [1],3.66e-05 s⁻¹ and 4.57e-05 s⁻¹
same,kon,cynomolgus IL-17A [1],1.55e+06 M⁻¹ s⁻¹ and 1.43e+06 M⁻¹ s⁻¹
same,Kd,mouse IL-17A [10],0.997 nM
same,koff,mouse IL-17A [10],0.00103 s⁻¹
same,kon,mouse IL-17A [10],1.03e+06 M⁻¹ s⁻¹
same,IC50 (µg/mL); Inhibition of native IL-17A mediated IL-6 production by NHDF; Experiment 1,[11],0.0501 µg/mL
same,IC50 (µg/mL); Inhibition of native IL-17A mediated IL-6 production by NHDF; Experiment 2,[11],0.0445 µg/mL
same,IC50 (µg/mL); Inhibition of native IL-17A mediated IL-6 production by NHDF; Experiment 3,[11],0.049 µg/mL
same,IC50 (µg/mL); Inhibition of IL-17A/F mediated GROα production by NHDF; Experiment 1,[12],0.549 µg/mL
same,IC50 (µg/mL); Inhibition of IL-17A/F mediated GROα production by NHDF; Experiment 2,[12],0.436 µg/mL
same,IC50 (µg/mL); Inhibition of IL-17A/F mediated GROα production by NHDF; Experiment 3,[12],0.392 µg/mL
same,IC50,[13],0.104 µg/mL
same,IC50 (nM); WEHI-164 cells cytotoxicity mediated by soluble rhTNF-α; Experiment 1,[14],1.28 nM
same,IC50 (nM); WEHI-164 cells cytotoxicity mediated by soluble rhTNF-α; Experiment 2,[14],2.07 nM
same,IC50 (nM); WEHI-164 cells cytotoxicity mediated by soluble rhTNF-α; Experiment 3,[14],0.631 nM
same,IC50,[15],0.259 µg/mL
same,IC50 (µg/mL); Inhibition of cyno IL-17A mediated IL-6 production by NHDF; Experiment 2,cynomolgus IL-17A [16],0.0784 µg/mL
same,IC50 (µg/mL); Inhibition of cyno IL-17A mediated IL-6 production by NHDF; Experiment 3,cynomolgus IL-17A [16],0.0583 µg/mL
same,binding result,recombinant human IL-17F,no binding
same,IC50 (µg/mL); Inhibition of IL-17A/F mediated IL-6 production by NHDF; Experiment 1,[17],0.135 µg/mL
same,IC50 (µg/mL); Inhibition of IL-17A/F mediated IL-6 production by NHDF; Experiment 2,[17],0.174 µg/mL
same,IC50 (µg/mL); Inhibition of IL-17A/F mediated IL-6 production by NHDF; Experiment 3,[17],0.131 µg/mL
same,fold IC50 against the parental anti-IL-17A antibodies mAb 4782 and mAb 7206,[18],~3 fold
same,"IC50 (nM); KYM-1D4 cells, cytotoxicity mediated by soluble rhTNF-α; Experiment 1",[19],0.152 nM
same,"IC50 (nM); KYM-1D4 cells, cytotoxicity mediated by soluble rhTNF-α; Experiment 2",[19],0.343 nM
same,"IC50 (nM); KYM-1D4 cells, cytotoxicity mediated by soluble rhTNF-α; Experiment 3",[19],0.169 nM
same,"IC50 (nM); KYM-1D4 cells, cytotoxicity mediated by membrane bound human TNF-α; Experiment 1",[20],0.82 nM
same,"IC50 (nM); KYM-1D4 cells, cytotoxicity mediated by membrane bound human TNF-α; Experiment 2",[20],0.966 nM
same,"IC50 (nM); KYM-1D4 cells, cytotoxicity mediated by membrane bound human TNF-α; Experiment 3",[20],0.425 nM
same,"IC50 (nM); KYM-1D4 cells, cytotoxicity mediated by endogenous soluble TNF-α; Experiment 1",[21],0.346 nM
same,"IC50 (nM); KYM-1D4 cells, cytotoxicity mediated by endogenous soluble TNF-α; Experiment 2",[21],0.327 nM
same,"IC50 (nM); KYM-1D4 cells, cytotoxicity mediated by endogenous soluble TNF-α; Experiment 3",[21],0.197 nM
same,IC50 (µg/mL); Inhibition of native IL-17A mediated GROα production by NHDF; Experiment 1,[22],0.081 µg/mL
same,IC50 (µg/mL); Inhibition of native IL-17A mediated GROα production by NHDF; Experiment 2,[22],0.0648 µg/mL
same,IC50 (µg/mL); Inhibition of native IL-17A mediated GROα production by NHDF; Experiment 3,[22],0.0508 µg/mL
same,IC50 (µg/mL); Inhibition of cyno IL-17A mediated GROα production by NHDF; Experiment 1,cynomolgus IL-17A [23],0.299 µg/mL
same,IC50 (µg/mL); Inhibition of cyno IL-17A mediated GROα production by NHDF; Experiment 2,cynomolgus IL-17A [23],0.329 µg/mL
same,IC50 (µg/mL); Inhibition of cyno IL-17A mediated GROα production by NHDF; Experiment 3,cynomolgus IL-17A [23],0.137 µg/mL
same,Kd,[4],0.022 nM and 0.0453 nM
same,koff,[4],4.15e-05 s⁻¹ and 3.99e-05 s⁻¹
same,kon,[4],1.88e+06 M⁻¹ s⁻¹ and 882000 M⁻¹ s⁻¹
same,Kd,cynomolgus TNF-α [24],0.399 nM and 0.186 nM
same,koff,cynomolgus TNF-α [24],0.000103 s⁻¹ and 0.000127 s⁻¹
same,kon,cynomolgus TNF-α [24],259000 M⁻¹ s⁻¹ and 681000 M⁻¹ s⁻¹
